We go through one molecule from US20190062425A1 (BETH ISRAEL DEACONESS MEDICAL CENTER, published 2019).

In the assay the target is T1, human transmembrane-4 L six family member-1 (TM4SF1), full-length (human, UniProt P30408 1-202, N-glycosylated at N129 and N159 (ECL2)).
T1 construct: whole, on cells; Four-transmembrane plasma membrane glycoprotein; It was tested on cells (HUVEC, transduced HDF and HEMn), in tissue sections and on immunoblots; also called FL-TM4SF1; FL
T1 sequence (looked up): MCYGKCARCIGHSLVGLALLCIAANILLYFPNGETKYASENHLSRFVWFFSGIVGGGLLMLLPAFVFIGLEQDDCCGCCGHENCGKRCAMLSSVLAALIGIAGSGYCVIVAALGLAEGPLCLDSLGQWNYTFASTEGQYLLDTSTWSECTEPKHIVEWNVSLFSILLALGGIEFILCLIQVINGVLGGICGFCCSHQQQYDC
The assay can be described thus: method not stated.

B1: 8G4 antibody (anti-TM4SF1 mouse monoclonal antibody produced by hybridoma mouse cell line 8G4-5-13-13F, PTA-120523) (antibody, V domains shown)
VH: EVILVESGGGLVKPGGSLKLSCAASGFTFSSFAMSWVRQTPEKRLEWVATISSGSIYIYYTDGVKGRFTISRDNAKNTVHLQMSSLRSEDTAMYYCARRGIYYGYDGYAMDYWGQGTSVTVSS
VL: AVVMTQTPLSLPVSLGDQASISCRSSQSLVHSNGNTYLHWYMQKPGQSPKVLIYKVSNRFSGVPDRFSGSGSGTDFTLKISRVEADDLGIYFCSQSTHIPLAFGAGTKLELK
notes: Mouse monoclonal antibody from a hybridoma; both have the length of variable domains; also called anti-TM4SF1 antibody 8G4
In turn, B1 came in with a dissociation constant Kd of approximately 1 nM.
